Here are results for two proteins from publication doi:10.1101/2024.03.07.583919 (bioRxiv, 2024).

The data set deals with the molecule itself. As to the kind of experiment: SEC. (In general: In gel filtration, larger molecules generally elute earlier.)

B1: wild-type human GCAP1-E6S (Guanylate Cyclase Activating Protein 1), myristoylated (natural protein)
chain: MGNVMSGKSVEELSSTECHQWYKKFMTECPSGQLTLYEFRQFFGLKNLSPSASQYVEQMFETFDFNKDGYIDFMEYVAALSLVLKGKVEQKLRWYFKLYDVDGNGCIDRDELLTIIQAIRAINPCSDTTMTAEEFTDTVFSKIDVNGDGELSLEEFIEGVQKDQMLLDTLTRSLDLTRIVRRLQNGEQDEEGADEAAEAAG
modifications: myristoylated at the N-terminal (by S. cerevisiae N-myristoyltransferase)
With B1, the binding result is “binds”.

B2: E111V-GCAP1 (human GCAP1-E6S with the cone-rod dystrophy substitution E111V), myristoylated (natural protein)
chain: MGNVMSGKSVEELSSTECHQWYKKFMTECPSGQLTLYEFRQFFGLKNLSPSASQYVEQMFETFDFNKDGYIDFMEYVAALSLVLKGKVEQKLRWYFKLYDVDGNGCIDRDVLLTIIQAIRAINPCSDTTMTAEEFTDTVFSKIDVNGDGELSLEEFIEGVQKDQMLLDTLTRSLDLTRIVRRLQNGEQDEEGADEAAEAAG
modifications: myristoylated at the N-terminal (by S. cerevisiae N-myristoyltransferase)
B2: the binding result was “binds”.
